Reference: patent US20240093191A1, “COMPOSITIONS AND METHODS FOR TREATING DISEASE ASSOCIATED WITH DUX4 OVEREXPRESSION” (RESEARCH INSTITUTE AT NATIONWIDE CHILDREN'S HOSPITAL, priority 2021, published 2024)

B1: H1.mir-675: commercially available H1 promoter mir-675 expression plasmid (SBI Biosciences) (nucleic acid)
DNA: GAACGCTGACGTCATCAACCCGCTCCAAGGAATCGCGGGCCCAGTGTCACTAGGCGGGAACACCCAGCGCGCGTGCGCCCTGGCAGGAAGATGGCTGTGAGGGACAGGGGAGTGGCGCCCTGCAATATTTGCATGTCGCTATGTGTTCTGGGAAATCACCATAAACGTGAAATGTCTTTGGATTTGGGAATCTTATAAGTTCTGTATGAGACCACCCCCCAGGGTCTGGTGCGGAGAGGGCCCACAGTGGACTTGGTGACGCTGTATGCCCTCACCGCTCAGCCCCTGGGGAATTCTTCGATTCTGCTTTTTT
B2: U6.mi405F: mi405 with one G at 5' end and 16 mer 3' flanking sequence with single CNNC motif (nucleic acid)
DNA: ACGCCGCCATCTCTAGGCCCGCGCCGGCCCCCTCGCACAGACTTGTGGGAGAAGCTCGGCTACTCCCCTGCCCCGGTTAATTTGCATATAATATTTCCTAGTAACTATAGAGGCTTAATGTGCGATAAAAGACAGATAATCTGTTCTTTTTAATACTAGCTACATTTTACATGATAGGCTTGGATTTCTATAAGAGATACAAATACTAAATTATTATTTTAAAAAACAGCACAAAAGGAAACTCACCCTAACTGTAAAGTAATTGTGTGTTTTGAGACTATAAATATCCCTTGGAGAAAAGCCTTGTTTGCTCGAGTGAGCGATCCAGGATTCAGATCTGGTTTCTGTAAAGCCACAGATGGGAAACCAGATCTGAATCCTGGACTGCCTACTAGTAATTCTTCGATTCTGCTTTTTT
B3: U6.mi405G: mi405 construct with altered flanking sequences (nucleic acid)
DNA: ACGCCGCCATCTCTAGGCCCGCGCCGGCCCCCTCGCACAGACTTGTGGGAGAAGCTCGGCTACTCCCCTGCCCCGGTTAATTTGCATATAATATTTCCTAGTAACTATAGAGGCTTAATGTGCGATAAAAGACAGATAATCTGTTCTTTTTAATACTAGCTACATTTTACATGATAGGCTTGGATTTCTATAAGAGATACAAATACTAAATTATTATTTTAAAAAACAGCACAAAAGGAAACTCACCCTAACTGTAAAGTAATTGTGTGTTTTGAGACTATAAATATCCCTTGGAGAAAAGCCTTGTTTGACCGTTTAAACTCGAGTGAGCGATCCAGGATTCAGATCTGGTTTCTGTAAAGCCACAGATGGGAAACCAGATCTGAATCCTGGACTGCCTACTAGAGAATTCTTCGATTCTGCTTTTTT
B4: U6.mir-675: U6 promoter-driven mir-675 expression plasmid with 40 nt 5' and 47 nt 3' flanking sequences (nucleic acid)
DNA: GACGCCGCCATCTCTAGGCCCGCGCCGGCCCCCTCGCACAGACTTGTGGGAGAAGCTCGGCTACTCCCCTGCCCCGGTTAATTTGCATATAATATTTCCTAGTAACTATAGAGGCTTAATGTGCGATAAAAGACAGATAATCTGTTCTTTTTAATACTAGCTACATTTTACATGATAGGCTTGGATTTCTATAAGAGATACAAATACTAAATTATTATTTTAAAAAACAGCACAAAAGGAAACTCACCCTAACTGTAAAGTAATTGTGTGTTTTGAGACTATAAATATCCCTTGGAGAAAAGCCTTGTTTGCGTTTAGTGAACCGTCAGATGGTACCGTTTAAACTCGAGCCCAGGGTCTGGTGCGGAGAGGGCCCACAGTGGACTTGGTGACGCTGTATGCCCTCACCGCTCAGCCCCTGGGACTAGAGCGGCCGCCACAGCGGGGAGATCCAGACATGATAAGATACATTTTTT
B5: U6.mi405H: mi405 construct with altered flanking sequences (nucleic acid)
DNA: ACGCCGCCATCTCTAGGCCCGCGCCGGCCCCCTCGCACAGACTTGTGGGAGAAGCTCGGCTACTCCCCTGCCCCGGTTAATTTGCATATAATATTTCCTAGTAACTATAGAGGCTTAATGTGCGATAAAAGACAGATAATCTGTTCTTTTTAATACTAGCTACATTTTACATGATAGGCTTGGATTTCTATAAGAGATACAAATACTAAATTATTATTTTAAAAAACAGCACAAAAGGAAACTCACCCTAACTGTAAAGTAATTGTGTGTTTTGAGACTATAAATATCCCTTGGAGAAAAGCCTTGTTTGACCGTTTAAACTCGAGTGAGCGATCCAGGATTCAGATCTGGTTTCTGTAAAGCCACAGATGGGAAACCAGATCTGAATCCTGGACTGCCTACTAGAGCGCACGCCAGTTTTTT

Assays:
mir-675-5p = experiment: Small-transcript northern blot of mir-675 processing in HEK293 cells; type: cell-based, human; conditions: for mature mir-675-5p bands on northern blot: HEK293, anti-mir-675-5p biotinylated probe
Description: Small-Transcript Northern Blots. […] (SEQ ID NO: 148)).

[1] = system: DUX4 ORF (RenLuc-DUX4 ORF); experiment: Dual-luciferase assay, RenLuc-DUX4 ORF reporter co-transfected with miDUX4 plasmids in HEK293 cells; type: cell-based, human; conditions: for reduction of Renilla luciferase activity: normalized to U6.miGFP
Procedure, shortened: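 HEK293 cells were co-transfected by lipofection with a psiCheck2 reporter carrying the DUX4 ORF as the Renilla luciferase 3′UTR and U6-driven miDUX4 plasmids, at increasing reporter:miRNA molar ratios. Renilla/Firefly ratio was read 24 h or 48 h post-transfection, with Firefly as transfection normaliser. Values are means ± SEM of triplicates over 3 experiments.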

[2] = system: DUX4-induced muscle toxicity; experiment: mi405 constructs (scAAV6) co-injected with AAV.CMV.DUX4-FL in mouse TA, H&E; type: in vivo, mouse (C57BL/6); conditions: scAAV6, 5e09 DRP co-injected with 5e09 DRP AAV.CMV.DUX4-FL, 8 weeks
Experimental: AAV Vector Delivery to Mice. (See also FIGS. 15A-B and 32A-B.) For determining bioactivity, 6- to 9-week-old C57BL/6 male and female mice received direct 35 μL IM injections into the TA. Mice received adeno-associated virus scAAV6.CMV.DUX4-FL at 5×10^9 DNase-resistant particles (DRP) co-injected with scAAV6.CMV.eGFP at 1×10^10 DRP, and a contralateral co-injection of scAAV6.CMV.DUX4-FL at 1×10^9 DRP or 5×10^9 DRP and scAAV6.U6.mir-675 at 5×10^10 DRP. To test toxicity of mir-675, the tibialis anterior (TA) was intramuscularly injected with increasing doses of scAAV6.U6.mir-675 at 5×10^10 DRP and 1×10^11 DRP, and injected contralateral TA with saline. To test mi405 toxicity, the TA was intramuscularly injected with 5×10^8 DRP, 5×10^9 DRP and 5×10^10 DRP of scAAV6.U6.mi405F, scAAV6.U6.mi405G or scAAV6.U6.mi405H and injected contralateral TA with saline. To test mi405 inhibition efficiency, the TA was co-injected with scAAV6.CMV.DUX4-FL at 5×10^9 DRP and scAAV6.U6.mi405F, G or H at 5×10^8 DRP, 5×10^9 DRP or 5×10^10 DRP. For this, a contralateral injection of either scAAV6.U6.mi405F, G or H or of scAAV6.CMV.DUX4-FL at 5×10^9 DRP was carried out. For mi405, all injections were compared to scAAV6.U6.mi405. Muscles were harvested at 2, 4 or 8 weeks post-injection. All animal studies were performed according to the NIH Guide for the Care and Use of Laboratory Animals.
Histology. (See also FIGS. 15A-B and 32A-B.) Dissected TA muscles were placed in O.C.T. Compound (Tissue-Tek) and frozen on liquid nitrogen-cooled isopentane. Cryosections were cut at 10 μm and then stained with H&E following standard protocols [Harper et al., Nat Med (2002) 8(3):253-61].
U6.mi405, U6.mi405F, U6.mi405G and U6.mi405H were co-injected using scAAV6 with AAV.CMV.DUX4-FL at equivalent doses (5e09 DNase Resistant Particles (DRP)) in the TA of C57BL/6 mice. This experiment was performed to investigate the efficiency of the four mi405 constructs to eliminate DUX4-induced muscle toxicity in vivo at doses equivalent to that of AAV.CMV.DUX4-FL. Previously, Wallace et al. [Wallace et al, Ann. Neurol. […]

[3] = DUX4:mi405 molar ratio 2 to 1, HEK293, 24 h
[4] = DUX4:mi405 molar ratio 12 to 1, HEK293, 24 h

Molecule | mature mir-675-5p bands on northern blot (mir-675-5p) | reduction of Renilla luciferase activity [1, 3] | reduction of Renilla luciferase activity [1, 4] | efficiency in eliminating DUX4-induced muscle toxicity compared to mi405 [2] | additional reduction of Renilla luciferase activity compared to U6.mi405F ([1]; DUX4:mi405 molar ratio 12 to 1) | other results
B1 | abundant levels of the mature mir-675-5p |  |  |  |  | mature mir-675-5p produced at 48h versus 24h post-transfection (mir-675-5p): 1.4 fold; mature mir-675-5p abundance relative to U6.mir-675-generated (mir-675-5p; 24 h post-transfection): 13 fold; mature mir-675-5p abundance relative to U6.mir-675-generated (mir-675-5p; 48 h post-transfection): 23 fold
B2 |  | 77±1% | 45±4% | no enhanced inhibition efficiency in vivo when compared to mi405 |  | reduction of relative Renilla luciferase activity ([1]; 1:4 DUX4:mi405 molar ratio, HEK293, 24 h, normalized to miGFP): 89±1%; decrease of relative Renilla luciferase activity compared to U6.mi405 ([1]; DUX4:mi405 molar ratio 8:1, 24 h): 48±6%; decrease of relative Renilla luciferase activity compared to U6.mi405 ([1]; DUX4:miDUX4 molar ratio 1:1): 33±2%; decrease of relative Renilla luciferase activity compared to U6.mi405 ([1]; DUX4:miDUX4 molar ratio 1:2): 32±2%; decrease of relative Renilla luciferase activity compared to U6.mi405 ([1]; DUX4:miDUX4 molar ratio 1:3): 34±1%; decrease of relative Renilla luciferase activity compared to U6.mi405 ([1]; DUX4:miDUX4 molar ratio 1:4): 32±1%; relative Renilla luciferase activity reached ([1]; DUX4:miDUX4 molar ratio 8:1): 38±2%; more efficient than U6.mi405 in reducing relative Renilla luciferase activity ([1]; DUX4:miDUX4 molar ratio 40:1): 13±2%
B3 |  | 81±1% | 59±2% | more efficient than mi405 | 26±5% | 
B4 | low levels of the mature mir-675-5p |  |  |  |  | 
B5 |  | 80±1% | 58±2% | more efficient than mi405 | 25±6% | 
